Measured values from patent US20220119506A1 (NOVOBIND LIVESTOCK THERAPEUTICS, published 2022).
Numbering of substitutions follows the chain as printed.

T1: PirA (Vibrio parahaemolyticus)
T1 construct: also called JHE-like toxin PirA-like; vp19
T1 chain: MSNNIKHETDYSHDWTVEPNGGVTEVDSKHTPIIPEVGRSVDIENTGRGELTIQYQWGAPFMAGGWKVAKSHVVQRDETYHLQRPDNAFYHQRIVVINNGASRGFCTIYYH

T2: PirB (Vibrio parahaemolyticus)
T2 construct: also called JHE-like toxin PirB-like
T2 chain: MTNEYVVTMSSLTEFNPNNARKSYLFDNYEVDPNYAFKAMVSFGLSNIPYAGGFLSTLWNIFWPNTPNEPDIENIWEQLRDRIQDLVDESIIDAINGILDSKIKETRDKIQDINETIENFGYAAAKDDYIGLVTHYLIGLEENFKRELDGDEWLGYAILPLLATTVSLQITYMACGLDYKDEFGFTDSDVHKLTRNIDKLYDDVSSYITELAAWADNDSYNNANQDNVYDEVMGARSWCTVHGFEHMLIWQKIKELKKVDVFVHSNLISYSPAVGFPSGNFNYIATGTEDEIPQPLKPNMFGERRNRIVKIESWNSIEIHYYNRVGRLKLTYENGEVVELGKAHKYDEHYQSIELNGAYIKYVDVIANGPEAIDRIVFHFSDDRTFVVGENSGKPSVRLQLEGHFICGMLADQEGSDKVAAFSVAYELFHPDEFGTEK

T3: VP28 (White spot syndrome virus)
T3 construct: Recombinant antigen; also called Coat protein VP28
T3 chain: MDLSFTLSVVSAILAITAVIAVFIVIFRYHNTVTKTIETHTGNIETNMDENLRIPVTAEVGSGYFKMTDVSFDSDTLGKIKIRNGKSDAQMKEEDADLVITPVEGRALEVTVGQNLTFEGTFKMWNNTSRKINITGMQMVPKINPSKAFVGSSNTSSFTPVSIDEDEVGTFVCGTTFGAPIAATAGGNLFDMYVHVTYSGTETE

B1: NBX0824 (VHH)
VHH: QVQLQESGGGLVQAGGSLRLTCAASGRTLSSYLSSYAMGWFRQAPGKERESVATITWNGDRTLYADAVKGRFTISRDNAKNTVYLQMNSVIPEDTAVYYCAADTVGRWRSTLSVRDEYDYWGQGTQVTVAS
notes: on phage in the phage ELISA
B2: NBX0616 (VHH)
VHH: QVQLQESGGGLVQAGGSLRLSCATSGLTFSSYAMGWFRQAPGKEREFVATISWSGKSTRYSDSVKGRFTISRDNAKNTVYLQMNSLKPEDTAVYYCAADYQRLGLLRVGVAEYDYWGQGIQVTVSS
notes: on phage in the phage ELISA
B3: NBX0635 (VHH)
VHH: B2 VHH with S31N, P41A, S61A, Y80D, Q82R, D99E, V108D, E112D, D114S, I120T
notes: on phage in the phage ELISA
B4: NBX0849 (VHH)
VHH: QVQLQESGGGLVQAGGSLRLSCAASGRTFNRYAMGWFRQAPGKEREFVAAISWSGNTQYTDSVKGRFTISRDDAKNTVYLQMNSLKPEDTAVYYCALRIPASSSTTYYYADQYDYWGQGTQVTVSS
notes: on phage in the phage ELISA
B5: NBX0813 (VHH)
VHH: QVQLQESGGGLVQAGGSLRLSCVVSGMLFSIRNMRWYRQAPGKQRELVAQIGSSGNTDYVESVKGRFTISRDNAKNTVYLQMNSLKPEDTAVYFCNALNYWGKGTLVTVSS
notes: on phage in the phage ELISA
B6: NBX0821 (VHH)
VHH: B5 VHH with S53T, N56A, E61G, K64E, A74P, K103E
notes: on phage in the phage ELISA
B7: NBX0815 (VHH)
VHH: QVQLQESGGGLVQAGGSLRLSCAASGRTFSSYAMGWFRQSPGKDREFVAAVSWSGGSTYYADSLKGRFTISRDNAKNTVYLQMNSLKPEDTADYYCAAQRVMDYYRPRTESAYAYWGQGTRVTVSS
notes: on phage in the phage ELISA
B8: NBX0607 (VHH)
VHH: QVQLQESGGGLVQAGGSLRLSCAASGGTFSRLTMGWFRQAPGEEREFVAAVSWVAETTDYADSVKGRFSISRDNSKNTVYLQMNSLKPVDTAVYYCAAGPRDMIRSRNIRSYDSWGQGTQVTVSS
notes: on phage in the phage ELISA
B9: NBX0619 (VHH)
VHH: B8 VHH with E6Q, S21F, S85N
notes: on phage in the phage ELISA
B10: NBX0632 (VHH)
VHH: B8 VHH with E6Q, E56G, S69T, Y80H
notes: on phage in the phage ELISA
B11: NBX0629 (VHH)
VHH: B8 VHH with E6Q, M34I, E46V
notes: on phage in the phage ELISA
B12: NBX0822 (VHH)
VHH: QVQLQESGGGLVRPGDSLTLSCTYSGQTFTNSGMAWFRQRPGKEREFVAAVSRSGLGRRYADSVRGRFTITRDNGKNTANLQMDSLKPEDTAVYSCAATTLDWGPRGPYRYWGQGTQVTVSS
notes: on phage in the phage ELISA
B13: NBX0605 (VHH)
VHH: QVQLQESGGGLVQPGGALRLSCAASGSFFSIYAMAWYRQAPGKQRELVAGITSGSETNYADSVKGRFTISRDNAKNTVYLQMNSLKLEDTAVYYCNRWAPLTRLDYWGQGTQVTVSS
notes: on phage in the phage ELISA
B14: NBX0820 (VHH)
VHH: QVQLQESGGGLVQTGGSLRLSCAASGRTFSNYVIGWFRQAPGKEREFVAAVGRGINSAYHATHYSESVKDRFTTSRDNAKNTGFLQMNSLKTEDTAVYYCAVTSRWGQFDRTDFNSWGQGTQVTVSS
notes: on phage in the phage ELISA
B15: NBX0602 (VHH)
VHH: QVQLQESGGGLVQAGDSLRLSCAASGRTFSRYAMGWFRQAPGKEREFVAAVDWSGGSTAYADSVKGRFTISRDNAKNTVYLQMNSLKPDDTAVYYCAARARDVYGRAWYVEDSSTYDYWGQGTQVTVSS
notes: on phage in the phage ELISA
B16: NBX0633 (VHH)
VHH: QVQLQESGGGLVQPGGSLRLSCTASGTIFRSKSMAWYRQAPGQGRETVAHISGLGHTNYVESVKGRFTVSRDDAKNAVYLQMSSLKPEDTAVYYCNTFTAAFSWGQGTQVTVSS
notes: on phage in the phage ELISA
B17: NBX0823 (VHH)
VHH: QVQLQQSGGGLVQTGGSLRLSCAASGSIFSIDFMGWYRQAPGNPREFVARIRGGNTYYADSVKGRFNISRDNAENTVYMQMNSLKSEDTAVYYCNAQITMRGGTWSTSEYWGQGTQVNVSS
notes: on phage in the phage ELISA
B18: NBX0402 (VHH)
VHH: QVQLQQSGGSLVQAGGSLRLSCAASGLPFINYAMGWFRQAPGKDREIVAAIDWNGDSTYYAVSVKGRFTISRDNAKNTVTLQMNSLKPEDTAIYYCASHYQPYIRVSATRRFEADYWGQGTQVTVSS
notes: on phage in the phage ELISA
B19: NBX0403 (VHH)
VHH: B18 VHH with S98A, H99D
notes: on phage in the phage ELISA
B20: NBX0825 (VHH)
VHH: QVQLQESGGGVVETGGSLSVSCVASGRTFSAYTMAWFRQSPGKEREFVASMSRGSAAYYTDSVRGRFAISRVGDKNTVHLQMRDLKPEDTAVYYCAGGSPGSSQIATPEAYTYWGQGTQVTVSA
notes: on phage in the phage ELISA
B21: NBX0401 (VHH)
VHH: QVQLQQSGGGLVRAGGSLRLSCETSGRTFSSYTMGWFRQAPGKEREFVGTIDWWSSSSSYADSVKGRFTISRDNAKNTVYLQMNSLKPEDTAVYYCAASGKYGLAYSRRDYAYWGQGTQVTVSS
notes: on phage in the phage ELISA
B22: NBX0621 (VHH)
VHH: QVQLQESGGGLVQAGGSLRLSCAASGRTFSTYSMGWFRQVPGKEREFVAAIRWSGGSRTYADSVKGRFTISRDNTKNVVYLQMTSLKPEDTAVYYCAADRDGYSSYAHQYDYWGQGTQVTVSS
notes: on phage in the phage ELISA
B23: NBX0628 (VHH)
VHH: B22 VHH with E6Q, A14V, T31S, S33A, R52K, K65A, S105R
notes: on phage in the phage ELISA
B24: NBX0618 (VHH)
VHH: QVQLQESGGGLVQPGGSLRLSCAASGSIFSFNAMGWYRQAPGKQRELVAAITKGGSTSYADSVKGRFTISVDNAKNTVYLQMNSLTPEDTAVYYCNVKTLRSALFPGYEYWGQGTQVTVSS
notes: on phage in the phage ELISA
B25: NBX0817 (VHH)
VHH: QVQLQESGGGLVQAGGSLRLSCGASGGTNSNYAMGWFRQPPGKKREFVAALSWSGYNTHYADSVKGRFTISRPSARTVDLQMNNVKPEDTAVYYCAARLSGRTAGSRTYYAEGQYDYRGQGTQVTVSS
notes: on phage in the phage ELISA
B26: NBX0844 (VHH)
VHH: QVQLQESGGGLAQTGDSLRLSCAASGRMFSGFVMGWYRQNPGKQRELVATITNGGLTHYGDSVKGRFTISRDNAKNTVYLQMNSLKSEDSAVYYCNARRLFTNYWGQGTQVTVSP
notes: on phage in the phage ELISA
B27: NBX0723 (VHH)
VHH: QVQLQESGGGLVQAGGSLRLSCAASGRTFSSYPMGWFRQAPGSEREQIAGISRSGVPGKYADSVSGRFTISRDNAKNTLYLQMNSLKPEDTAVYYCAARSIYSNNYSYWGQGTQVTVSS
notes: on phage in the phage ELISA
B28: NBX0724 (VHH)
VHH: B27 VHH with E6Q, P57S
notes: on phage in the phage ELISA
B29: NBX0745 (VHH)
VHH: B27 VHH with S43K, V56D, D62A, S100E
notes: on phage in the phage ELISA
B30: NBX0722 (VHH)
VHH: B27 VHH with A23R, S43K, V56D, D62A, S100Q
notes: on phage in the phage ELISA
B31: NBX0725 (VHH)
VHH: B27 VHH with E6Q, A23T, S43K, V56N, S100Q
notes: on phage in the phage ELISA
B32: NBX0746 (VHH)
VHH: B27 VHH with P33A, Q39R, S43K, V56N, S100Q
notes: on phage in the phage ELISA
B33: NBX0730 (VHH)
VHH: QVQLQESGGGLVQTGDSLRLACAASGRTFSSYPMAWYRQAPGQEREFVAGINRNGNIPVYADSVKGRFTISRDNAKNTVYLQMNNLKPEDTAVYYCAARTIYDSHYTSWGQGTQVTVSS
notes: on phage in the phage ELISA

Target: T1, PirA
Assay: phage ELISA, antigen-coated wells

Binder	binding above PBS-coated wells
B1	≥ 50%
B2	≥ 50%
B3	≥ 50%
B4	≥ 50%
B5	≥ 50%
B6	≥ 50%
B7	≥ 50%
B8	≥ 50%
B9	≥ 50%
B10	≥ 50%
B11	≥ 50%
B12	≥ 50%
B13	≥ 50%
B14	≥ 50%
B15	≥ 50%
B16	≥ 50%
B17	≥ 50%
B18	≥ 50%
B19	≥ 50%
B20	≥ 50%
B21	≥ 50%
B22	≥ 50%
B23	≥ 50%
B24	≥ 50%
B25	≥ 50%

Target: T2, PirB
Assay: phage ELISA, antigen-coated wells

Binder	binding above PBS-coated wells
B26	≥ 50%

Target: T3, VP28
Assay: phage ELISA, antigen-coated wells

Binder	binding above PBS-coated wells
B27	≥ 50%
B28	≥ 50%
B29	≥ 50%
B30	≥ 50%
B31	≥ 50%
B32	≥ 50%
B33	≥ 50%
